Test results reported in publication PMC9947421.

Key:
Test in all cases: AP-MS
[1] = target: DNA-dependent protein kinase, catalytic subunit (PRKDC/DNAPKcs) (UniProt P78527)
[2] = target: Rap1-interacting factor 1 (RIF1) (UniProt Q5UIP0)
VGLL4 = VGLL4 (UniProt Q14135); settings: read off a plot
[3] = target: X-ray repair cross-complementing protein 6 (XRCC6) (UniProt P12956); settings: HEK293 cells
[4] = target: Yes-associated protein (YAP) (UniProt P46937); settings: read off a plot
[5] = target: poly(ADP-ribose) polymerase 1 (PARP1) (UniProt P09874)
Chain of UniProt P09874 (P09874 whole entry): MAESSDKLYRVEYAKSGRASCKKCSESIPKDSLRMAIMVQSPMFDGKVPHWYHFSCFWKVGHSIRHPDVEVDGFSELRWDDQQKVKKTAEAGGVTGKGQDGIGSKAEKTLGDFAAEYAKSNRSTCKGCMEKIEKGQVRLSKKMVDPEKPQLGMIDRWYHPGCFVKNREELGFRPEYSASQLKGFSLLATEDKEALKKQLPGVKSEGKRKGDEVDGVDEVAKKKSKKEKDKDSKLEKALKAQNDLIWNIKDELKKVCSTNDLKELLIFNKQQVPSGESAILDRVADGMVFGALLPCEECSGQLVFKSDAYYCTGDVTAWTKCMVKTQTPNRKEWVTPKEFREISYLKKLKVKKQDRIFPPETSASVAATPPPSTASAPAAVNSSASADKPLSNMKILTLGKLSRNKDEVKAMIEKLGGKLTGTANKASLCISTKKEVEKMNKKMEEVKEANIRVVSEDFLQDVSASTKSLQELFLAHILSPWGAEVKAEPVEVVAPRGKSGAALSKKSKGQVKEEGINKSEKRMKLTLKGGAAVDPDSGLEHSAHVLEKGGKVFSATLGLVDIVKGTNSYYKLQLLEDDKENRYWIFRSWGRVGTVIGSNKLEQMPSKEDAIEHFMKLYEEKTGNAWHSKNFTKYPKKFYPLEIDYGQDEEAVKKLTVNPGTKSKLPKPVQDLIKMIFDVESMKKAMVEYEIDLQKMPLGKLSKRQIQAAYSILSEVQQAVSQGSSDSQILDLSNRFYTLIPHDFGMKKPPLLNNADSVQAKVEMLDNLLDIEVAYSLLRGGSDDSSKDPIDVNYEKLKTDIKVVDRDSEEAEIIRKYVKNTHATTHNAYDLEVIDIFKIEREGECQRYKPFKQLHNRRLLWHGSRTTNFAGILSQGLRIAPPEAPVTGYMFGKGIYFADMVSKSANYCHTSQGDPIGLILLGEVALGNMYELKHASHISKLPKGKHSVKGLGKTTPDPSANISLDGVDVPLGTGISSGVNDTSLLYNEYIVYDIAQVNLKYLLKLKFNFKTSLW

[6] = target: transcriptional co-activator with PDZ-binding motif (TAZ) (UniProt Q9GZV5); settings: read off a plot

Chain of UniProt P78527 (P78527 whole entry): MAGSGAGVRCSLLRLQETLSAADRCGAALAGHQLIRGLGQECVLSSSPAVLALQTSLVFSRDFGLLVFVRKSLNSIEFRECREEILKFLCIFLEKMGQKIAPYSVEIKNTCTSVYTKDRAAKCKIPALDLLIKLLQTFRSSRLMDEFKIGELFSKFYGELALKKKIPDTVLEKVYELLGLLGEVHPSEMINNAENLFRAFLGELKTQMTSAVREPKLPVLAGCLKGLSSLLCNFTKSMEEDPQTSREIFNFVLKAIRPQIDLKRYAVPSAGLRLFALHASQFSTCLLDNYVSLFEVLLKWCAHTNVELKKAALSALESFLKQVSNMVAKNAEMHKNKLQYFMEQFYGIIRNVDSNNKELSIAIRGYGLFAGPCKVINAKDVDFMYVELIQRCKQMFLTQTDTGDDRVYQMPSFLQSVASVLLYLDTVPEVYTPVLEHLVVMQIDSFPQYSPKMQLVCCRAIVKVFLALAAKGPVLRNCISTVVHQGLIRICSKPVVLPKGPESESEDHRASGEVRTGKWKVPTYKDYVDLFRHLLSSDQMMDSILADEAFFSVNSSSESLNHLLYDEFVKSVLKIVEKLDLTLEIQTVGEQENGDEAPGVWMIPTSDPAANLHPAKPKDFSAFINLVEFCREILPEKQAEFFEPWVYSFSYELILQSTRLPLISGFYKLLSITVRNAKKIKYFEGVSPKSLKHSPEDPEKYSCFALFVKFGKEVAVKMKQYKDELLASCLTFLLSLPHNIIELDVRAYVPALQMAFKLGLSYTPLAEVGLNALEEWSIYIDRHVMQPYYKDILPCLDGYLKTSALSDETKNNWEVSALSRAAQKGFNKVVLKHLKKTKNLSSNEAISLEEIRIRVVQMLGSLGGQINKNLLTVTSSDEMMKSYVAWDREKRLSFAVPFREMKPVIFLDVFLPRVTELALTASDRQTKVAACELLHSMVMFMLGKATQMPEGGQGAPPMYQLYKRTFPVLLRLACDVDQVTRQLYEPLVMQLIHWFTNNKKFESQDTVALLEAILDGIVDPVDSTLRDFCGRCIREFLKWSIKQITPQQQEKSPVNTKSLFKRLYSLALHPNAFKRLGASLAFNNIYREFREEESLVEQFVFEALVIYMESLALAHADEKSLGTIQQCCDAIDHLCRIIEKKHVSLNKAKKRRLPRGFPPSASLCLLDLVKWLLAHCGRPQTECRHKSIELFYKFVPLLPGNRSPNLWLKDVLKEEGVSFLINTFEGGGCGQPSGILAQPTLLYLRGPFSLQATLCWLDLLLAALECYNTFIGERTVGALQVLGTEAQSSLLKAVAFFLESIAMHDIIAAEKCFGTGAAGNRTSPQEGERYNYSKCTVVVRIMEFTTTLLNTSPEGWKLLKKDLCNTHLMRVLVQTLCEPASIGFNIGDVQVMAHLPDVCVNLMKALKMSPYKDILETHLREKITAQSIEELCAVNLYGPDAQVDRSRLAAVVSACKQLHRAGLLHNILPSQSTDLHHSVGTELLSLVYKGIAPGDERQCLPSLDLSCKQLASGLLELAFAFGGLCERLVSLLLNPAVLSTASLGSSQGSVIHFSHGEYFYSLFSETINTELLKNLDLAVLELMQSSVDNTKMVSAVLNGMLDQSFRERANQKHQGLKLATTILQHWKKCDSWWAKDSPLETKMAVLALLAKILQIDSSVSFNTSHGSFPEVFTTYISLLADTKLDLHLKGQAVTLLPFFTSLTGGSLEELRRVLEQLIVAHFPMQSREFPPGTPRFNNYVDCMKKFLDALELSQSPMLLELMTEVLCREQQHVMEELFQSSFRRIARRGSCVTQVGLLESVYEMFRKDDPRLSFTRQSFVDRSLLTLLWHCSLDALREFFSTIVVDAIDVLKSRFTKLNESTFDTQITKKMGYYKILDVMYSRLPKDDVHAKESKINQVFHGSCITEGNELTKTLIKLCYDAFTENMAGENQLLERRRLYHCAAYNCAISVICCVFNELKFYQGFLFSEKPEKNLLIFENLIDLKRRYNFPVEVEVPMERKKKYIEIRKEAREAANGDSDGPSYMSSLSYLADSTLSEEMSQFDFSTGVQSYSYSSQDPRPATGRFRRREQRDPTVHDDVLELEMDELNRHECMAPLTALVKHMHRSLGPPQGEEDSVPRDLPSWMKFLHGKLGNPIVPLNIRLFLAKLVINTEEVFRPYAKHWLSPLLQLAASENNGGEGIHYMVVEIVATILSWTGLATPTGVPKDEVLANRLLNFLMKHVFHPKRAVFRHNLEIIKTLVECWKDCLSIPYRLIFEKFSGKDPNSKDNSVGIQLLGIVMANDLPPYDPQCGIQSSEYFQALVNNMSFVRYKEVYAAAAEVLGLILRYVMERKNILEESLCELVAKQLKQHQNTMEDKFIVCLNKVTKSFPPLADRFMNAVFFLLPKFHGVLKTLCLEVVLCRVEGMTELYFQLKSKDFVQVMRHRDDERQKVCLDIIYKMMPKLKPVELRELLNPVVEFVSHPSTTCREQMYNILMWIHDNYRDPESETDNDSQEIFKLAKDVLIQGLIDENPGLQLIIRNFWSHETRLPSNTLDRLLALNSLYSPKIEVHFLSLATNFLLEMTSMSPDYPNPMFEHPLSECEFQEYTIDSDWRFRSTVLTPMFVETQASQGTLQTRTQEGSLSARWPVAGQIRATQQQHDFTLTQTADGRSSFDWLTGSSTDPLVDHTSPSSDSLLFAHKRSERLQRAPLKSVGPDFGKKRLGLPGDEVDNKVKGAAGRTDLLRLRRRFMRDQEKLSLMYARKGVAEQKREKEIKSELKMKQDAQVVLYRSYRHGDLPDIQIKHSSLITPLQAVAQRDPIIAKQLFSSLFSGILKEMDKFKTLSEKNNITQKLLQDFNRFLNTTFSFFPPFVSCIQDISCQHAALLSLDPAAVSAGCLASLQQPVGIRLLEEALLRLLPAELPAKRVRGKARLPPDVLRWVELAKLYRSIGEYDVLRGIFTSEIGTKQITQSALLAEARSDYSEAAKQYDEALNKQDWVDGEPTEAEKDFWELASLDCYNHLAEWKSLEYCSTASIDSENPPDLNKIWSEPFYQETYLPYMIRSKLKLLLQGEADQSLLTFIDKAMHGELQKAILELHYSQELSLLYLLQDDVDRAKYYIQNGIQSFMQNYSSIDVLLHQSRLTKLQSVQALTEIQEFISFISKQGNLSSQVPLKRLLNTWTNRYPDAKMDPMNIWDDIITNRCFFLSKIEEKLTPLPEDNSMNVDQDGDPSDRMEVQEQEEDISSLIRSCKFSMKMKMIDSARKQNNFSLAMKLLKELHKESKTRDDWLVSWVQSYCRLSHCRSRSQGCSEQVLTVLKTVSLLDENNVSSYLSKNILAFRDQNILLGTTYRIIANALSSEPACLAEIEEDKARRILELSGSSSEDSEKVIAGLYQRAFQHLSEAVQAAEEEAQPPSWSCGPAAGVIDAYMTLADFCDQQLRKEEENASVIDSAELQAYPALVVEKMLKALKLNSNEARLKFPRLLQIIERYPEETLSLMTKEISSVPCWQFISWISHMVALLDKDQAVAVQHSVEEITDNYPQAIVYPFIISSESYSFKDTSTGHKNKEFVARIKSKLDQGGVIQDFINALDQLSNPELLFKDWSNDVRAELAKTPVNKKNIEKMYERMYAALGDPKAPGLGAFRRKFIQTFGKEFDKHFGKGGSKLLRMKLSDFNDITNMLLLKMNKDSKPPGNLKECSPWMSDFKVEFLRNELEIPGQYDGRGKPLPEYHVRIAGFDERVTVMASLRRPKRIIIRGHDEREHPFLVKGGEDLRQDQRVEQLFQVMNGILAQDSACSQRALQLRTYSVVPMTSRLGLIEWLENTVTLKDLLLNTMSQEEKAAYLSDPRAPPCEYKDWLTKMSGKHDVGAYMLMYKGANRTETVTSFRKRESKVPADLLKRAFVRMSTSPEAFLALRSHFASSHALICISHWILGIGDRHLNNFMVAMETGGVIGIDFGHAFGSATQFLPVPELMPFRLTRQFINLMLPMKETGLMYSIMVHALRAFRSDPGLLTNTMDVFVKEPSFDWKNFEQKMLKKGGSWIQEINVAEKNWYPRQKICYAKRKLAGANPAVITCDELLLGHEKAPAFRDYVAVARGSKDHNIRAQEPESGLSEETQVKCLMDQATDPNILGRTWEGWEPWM

## WT TEAD3-Myc/Flag (from UniProt Q99594) … -> … (R>N; K>N; R>N; K>N; K>N; V>N; R>N; residue numbers not printed)
[1]; Detroit 562 cells, replicate TEAD3 mut_1 (parent: TEAD3_WT_1), parent: 232
  response: 132 PSMs
[1]; Detroit 562 cells, replicate TEAD3 mut_2 (parent: TEAD3_WT_2), parent: 898
  response: 496 PSMs
[1]; Detroit 562 cells, replicate TEAD3 mut_3 (parent: TEAD3_WT_3), parent: 658
  response: 396 PSMs
[1]; HEK293 cells, replicate TEAD3 mut_1 (parent: TEAD3_WT_1), parent: 258
  response: 167 PSMs
[1]; HEK293 cells, replicate TEAD3 mut_2 (parent: TEAD3_WT_2), parent: 223
  response: 195 PSMs
[1]; HEK293 cells, replicate TEAD3 mut_3 (parent: TEAD3_WT_3), parent: 216
  response: 230 PSMs
[2]; Detroit 562 cells, replicate TEAD3 mut_1 (parent: TEAD3_WT_1), parent: 302
  response: 118 PSMs
[2]; Detroit 562 cells, replicate TEAD3 mut_2 (parent: TEAD3_WT_2), parent: 297
  response: 45 PSMs
[2]; Detroit 562 cells, replicate TEAD3 mut_3 (parent: TEAD3_WT_3), parent: 331
  response: 26 PSMs
[2]; HEK293 cells, replicate TEAD3 mut_1
  response: 2 PSMs
[2]; HEK293 cells, replicate TEAD3 mut_2 (parent: TEAD3_WT_2), parent: 3
  response: 1 PSMs
VGLL4; Detroit 562 cells, parent: est. 90
  response (average sum PSMs): 75
VGLL4; HEK293 cells, parent: est. 150
  response (average sum PSMs): 190
[3]; replicate TEAD3 mut_1 (parent: TEAD3_WT_1), parent: 56
  response: 1 PSMs
[3]; replicate TEAD3 mut_3 (parent: TEAD3_WT_3), parent: 92
  response: 1 PSMs
[4]; Detroit 562 cells, parent: est. 620
  response (average sum PSMs): 960
[4]; HEK293 cells, parent: est. 200
  response (average sum PSMs): 230
[5]; Detroit 562 cells, replicate TEAD3 mut_1 (parent: TEAD3_WT_1), parent: 90
  response: 6 PSMs
[5]; Detroit 562 cells, replicate TEAD3 mut_2 (parent: TEAD3_WT_2), parent: 76
  response: 5 PSMs
[5]; Detroit 562 cells, replicate TEAD3 mut_3 (parent: TEAD3_WT_3), parent: 87
  response: 8 PSMs
[5]; HEK293 cells, replicate TEAD3 mut_1 (parent: TEAD3_WT_1), parent: 380
  response: 1 PSMs
[5]; HEK293 cells, replicate TEAD3 mut_2 (parent: TEAD3_WT_2), parent: 624
  response: 3 PSMs
[5]; HEK293 cells, replicate TEAD3 mut_3 (parent: TEAD3_WT_3), parent: 950
  response: 4 PSMs
[6]; Detroit 562 cells, parent: est. 170
  response (average sum PSMs): 250
[6]; HEK293 cells, parent: est. 23
  response (average sum PSMs): 22
